# Non-standard residues stand in square brackets, D forms with d. No end group written: not given here. Tyr(3-I) = N[C@@H](Cc1ccc(O)c(I)c1)C(=O)O
# T1: HIS-TEV-tagged CBP80(Δ2–23) (human, UniProt Q09161 24-790, Δ2–23)
# T1 sequence: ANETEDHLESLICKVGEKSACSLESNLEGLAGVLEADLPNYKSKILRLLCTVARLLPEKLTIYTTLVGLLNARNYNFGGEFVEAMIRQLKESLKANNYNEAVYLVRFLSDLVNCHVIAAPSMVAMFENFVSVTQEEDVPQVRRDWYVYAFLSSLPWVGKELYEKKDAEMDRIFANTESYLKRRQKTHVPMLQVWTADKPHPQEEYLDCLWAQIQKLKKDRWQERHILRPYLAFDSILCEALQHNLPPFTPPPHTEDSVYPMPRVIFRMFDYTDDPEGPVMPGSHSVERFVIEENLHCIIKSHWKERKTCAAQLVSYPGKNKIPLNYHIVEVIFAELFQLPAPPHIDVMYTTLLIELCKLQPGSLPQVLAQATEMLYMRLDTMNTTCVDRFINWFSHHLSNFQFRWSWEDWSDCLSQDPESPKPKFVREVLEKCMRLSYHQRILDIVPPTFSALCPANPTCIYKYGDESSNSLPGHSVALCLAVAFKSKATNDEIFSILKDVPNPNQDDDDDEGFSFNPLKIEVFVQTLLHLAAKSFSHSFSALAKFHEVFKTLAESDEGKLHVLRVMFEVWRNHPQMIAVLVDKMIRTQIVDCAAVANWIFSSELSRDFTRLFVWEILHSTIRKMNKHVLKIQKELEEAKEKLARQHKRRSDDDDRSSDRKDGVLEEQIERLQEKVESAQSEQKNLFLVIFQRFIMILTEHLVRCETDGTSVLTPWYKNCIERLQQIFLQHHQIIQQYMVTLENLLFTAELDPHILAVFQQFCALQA
# T2: cap-binding complex (CBC): preformed complex of CBP80–CBP20 (human, UniProt Q09161;P52298, Δ2–23)
# T2 sequence 1: T1 sequence
# T2 sequence 2: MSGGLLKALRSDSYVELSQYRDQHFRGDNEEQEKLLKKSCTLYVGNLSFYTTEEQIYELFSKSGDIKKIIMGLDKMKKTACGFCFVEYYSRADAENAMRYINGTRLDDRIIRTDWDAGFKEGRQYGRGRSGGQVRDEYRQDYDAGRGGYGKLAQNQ
# B1: synthetic PGC-1β peptide spanning amino acids 994–1023 (peptide)
# peptide: Ac-SEEALPASGKSK[Tyr(3-I)]EAMDFDSLLKEAQQSLH
# modifications: not fully specified
# B2: CBP20 (natural protein)
# chain: T2 sequence 2
# B3: PGC-1β amino acids 999–1023 (domain or fragment)
# chain: PASGKSKYEAMDFDSLLKEAQQSLH
# B4: PGC-1β peptide, amino acids 1009–1021 (peptide)
# peptide: MDFDSLLKEAQQS
# B5: PGC-1β-10G (peptide)
# peptide: MDFDSLLKEGQQS
# How the values were obtained:
# [1] = target: T1, HIS-TEV-tagged CBP80(Δ2–23); assay: crystal structure
# [2] = target: T2, cap-binding complex (CBC): preformed …; assay: crystal structure
# [3] = target: T1, HIS-TEV-tagged CBP80(Δ2–23); assay: pull-down
# [4] = target: T2, cap-binding complex (CBC): preformed …; assay: fluorescence polarisation
Binder,binding result [1],binding result [4],also measured
B1,binds,–,binding result [2]: binds
B2,binds,–,–
B3,–,–,binding result [3]: binds
B4,–,binds,–
B5,–,binds,–
